According to publication doi:10.1101/783266:

Key:
Assay in all cases: BLI
[1] = target: LRX4^ΔE-FLAG (Arabidopsis thaliana) (UniProt Q9LHF1)
[2] = target: LRX5^ΔE-FLAG (Arabidopsis thaliana) (UniProt Q9SN46)
[3] = target: LRX1^ΔE-FLAG (Arabidopsis thaliana) (UniProt O65375)

Measured: Kd

Chain of UniProt Q9SN46 (Q9SN46 32-857, stated change not applied): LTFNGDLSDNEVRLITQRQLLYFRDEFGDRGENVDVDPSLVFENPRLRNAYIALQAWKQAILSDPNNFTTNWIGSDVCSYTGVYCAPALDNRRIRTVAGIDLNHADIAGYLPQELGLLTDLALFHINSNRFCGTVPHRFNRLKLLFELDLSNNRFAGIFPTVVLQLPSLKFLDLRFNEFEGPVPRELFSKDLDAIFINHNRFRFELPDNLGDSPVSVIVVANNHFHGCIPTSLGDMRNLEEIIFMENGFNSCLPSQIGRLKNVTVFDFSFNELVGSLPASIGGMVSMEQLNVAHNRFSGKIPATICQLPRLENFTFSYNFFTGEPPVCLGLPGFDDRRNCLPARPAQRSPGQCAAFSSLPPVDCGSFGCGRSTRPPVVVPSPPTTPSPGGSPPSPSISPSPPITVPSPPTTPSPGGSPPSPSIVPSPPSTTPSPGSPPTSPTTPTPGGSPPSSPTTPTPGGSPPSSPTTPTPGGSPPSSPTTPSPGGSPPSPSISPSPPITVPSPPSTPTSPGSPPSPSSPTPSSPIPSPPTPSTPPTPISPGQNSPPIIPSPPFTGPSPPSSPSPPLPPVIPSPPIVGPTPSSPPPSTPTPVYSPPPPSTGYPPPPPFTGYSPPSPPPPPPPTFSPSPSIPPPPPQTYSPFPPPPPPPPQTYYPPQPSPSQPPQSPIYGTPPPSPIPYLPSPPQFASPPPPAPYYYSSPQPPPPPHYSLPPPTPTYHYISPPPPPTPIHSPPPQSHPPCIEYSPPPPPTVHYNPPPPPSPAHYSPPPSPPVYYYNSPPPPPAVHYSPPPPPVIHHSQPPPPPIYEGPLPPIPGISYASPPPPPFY
Chain of UniProt Q9LHF1 (Q9LHF1 26-494, stated change not applied): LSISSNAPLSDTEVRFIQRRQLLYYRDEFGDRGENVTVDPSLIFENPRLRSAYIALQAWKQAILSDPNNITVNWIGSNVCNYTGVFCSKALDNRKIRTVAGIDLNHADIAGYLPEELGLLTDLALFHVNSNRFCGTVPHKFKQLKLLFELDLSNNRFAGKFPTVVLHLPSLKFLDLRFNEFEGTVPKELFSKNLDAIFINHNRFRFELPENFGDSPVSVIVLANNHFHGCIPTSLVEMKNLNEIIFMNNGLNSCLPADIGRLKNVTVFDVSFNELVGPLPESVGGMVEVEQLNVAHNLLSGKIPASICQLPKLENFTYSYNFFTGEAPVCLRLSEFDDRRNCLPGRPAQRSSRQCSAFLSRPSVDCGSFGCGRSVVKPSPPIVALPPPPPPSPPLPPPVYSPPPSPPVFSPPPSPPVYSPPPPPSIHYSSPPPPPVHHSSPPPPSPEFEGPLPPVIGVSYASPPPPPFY
Chain of UniProt O65375 (O65375 27-744, stated change not applied): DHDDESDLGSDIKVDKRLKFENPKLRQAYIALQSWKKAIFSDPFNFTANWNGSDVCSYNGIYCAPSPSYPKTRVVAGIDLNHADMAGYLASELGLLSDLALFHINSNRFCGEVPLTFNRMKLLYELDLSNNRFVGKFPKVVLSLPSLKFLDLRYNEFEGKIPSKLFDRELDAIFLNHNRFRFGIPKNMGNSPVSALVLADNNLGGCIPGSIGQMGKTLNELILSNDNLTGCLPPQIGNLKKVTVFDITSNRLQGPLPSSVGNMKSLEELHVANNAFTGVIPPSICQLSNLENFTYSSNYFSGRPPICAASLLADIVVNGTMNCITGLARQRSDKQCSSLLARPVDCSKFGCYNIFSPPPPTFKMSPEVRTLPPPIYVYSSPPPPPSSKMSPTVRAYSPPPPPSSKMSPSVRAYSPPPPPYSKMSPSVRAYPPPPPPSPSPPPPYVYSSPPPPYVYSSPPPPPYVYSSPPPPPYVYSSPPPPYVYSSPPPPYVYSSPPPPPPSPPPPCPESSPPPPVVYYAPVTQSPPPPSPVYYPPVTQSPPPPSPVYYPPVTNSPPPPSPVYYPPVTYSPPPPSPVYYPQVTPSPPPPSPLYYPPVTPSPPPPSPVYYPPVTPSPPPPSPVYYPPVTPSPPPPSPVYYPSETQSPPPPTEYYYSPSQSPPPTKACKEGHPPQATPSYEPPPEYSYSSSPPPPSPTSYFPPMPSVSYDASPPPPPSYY

ATTKYISYQSLKRNSVPCSRRGASYYNCQNGAQANPYSRGCSKIARCRS [RALF1, in vitro synthesized peptide]
5 nM: all assays above
